This experiment addresses C. elegans PGL-3 N-terminal dimerization domain (NtDD), wild type (C. elegans). In words: SEC-MALS.

Substance “C. elegans PGL-3 N-terminal dimerization domain (NtDD), wild type (domain or fragment)” yielded a stoichiometry N of 2.

Source of the values: article doi:10.1101/382838.
